These results are taken from patent US20200102355A1.

Series [1] concerns the target TST (BMC-T1 / HO-5812 with SpyTag inserted on the lumenal side, flanked by six residue glycine-serine linkers) (Haliangium ochraceum). In words: calculated from fluorescence intensity of purified shells.
Series [2] addresses TSC (BMC-T1 / HO-5812 with SpyCatcherΔN1ΔC2 inserted on the lumenal side, flanked by six residue glycine-serine linkers) (Haliangium ochraceum) (UniProt D0LHE3). Described as above.
Series [3] deals with STprobe (SpyTag-mTurquoise2-TEV protease cleavage site-tetracysteine motif-6xHis permeability probe).

Sequence of TST (BMC-T1 / HO-5812 with SpyTag inserted on the lumenal side, flanked by six residue glycine-serine linkers) (Haliangium ochraceum) (D0LHE3 whole entry): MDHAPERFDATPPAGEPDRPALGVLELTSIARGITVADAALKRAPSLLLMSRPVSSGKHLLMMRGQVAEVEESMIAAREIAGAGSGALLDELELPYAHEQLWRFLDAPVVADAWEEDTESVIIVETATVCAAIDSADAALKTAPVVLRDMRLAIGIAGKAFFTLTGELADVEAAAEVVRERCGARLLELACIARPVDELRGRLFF

Regarding SCcfp (6xHis-SpyCatcher-mTurquoise2), in series [1], the copies of cfp cargo per shell (copies per shell) is 58. For the molecule “STcfp (mTurquoise2 with N-terminal 13 residue SpyTag and C-terminal hexahistidine tag)”, the copies of cfp cargo per shell (copies per shell) in series [2] is 73.

B1: tobacco etch virus protease (TEVp) (protein)
chain: GESLFKGPRDYNPISSTICHLTNESDGHTTSLYGIGFGPFIITNKHLFRRNNGTLLVQSLHGVFKVKNTTTLQQHLIDGRDMIIIRMPKDFPPFPQKLKFREPQREERICLVTTNFQTKSMSSMVSDTSCTFPSSDGIFWKHWIQTKDGQCGSPLVSTRDGFIVGIHSASNFTNTNNYFTSVPKNFMELLTNQEAQQWVSGWRLNADSVLWGGHKVFMSKPEEPFQPVKEATQLMN
For the molecule B1, the “fluorescence emission shift (FRET of mTurquoise2 to FlAsH) reverted on TEVp addition, probe in uncapped shells” value in series [3] is recorded as “Addition of the FlAsH reagent to the shells results in a fluorescence emission shift which is reverted upon TEVp addition”.
